Consider 2 molecules from patent publication US20170095575A1 (BIOMED VALLEY DISCOVERIES, published 2017).

One experiment deals with T1, mTEM8-Fc (UniProt Q9CZ52 31-319, limits assumed).
T1 construct: not shown: Fc part
T1 sequence (looked up): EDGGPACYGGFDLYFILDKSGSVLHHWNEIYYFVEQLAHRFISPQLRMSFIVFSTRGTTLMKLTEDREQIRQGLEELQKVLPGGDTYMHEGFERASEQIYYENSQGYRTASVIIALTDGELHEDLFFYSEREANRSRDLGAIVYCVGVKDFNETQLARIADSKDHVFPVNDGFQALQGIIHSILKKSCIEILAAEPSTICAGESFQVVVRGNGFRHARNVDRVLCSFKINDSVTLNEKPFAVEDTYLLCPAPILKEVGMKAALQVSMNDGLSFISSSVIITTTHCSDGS
Nature of the experiment: Biacore affinity measurement of Fab.

The target of a further experiment is T2, hTEM8-AP (Homo sapiens, UniProt Q9H6X2 33-321).
T2 sequence: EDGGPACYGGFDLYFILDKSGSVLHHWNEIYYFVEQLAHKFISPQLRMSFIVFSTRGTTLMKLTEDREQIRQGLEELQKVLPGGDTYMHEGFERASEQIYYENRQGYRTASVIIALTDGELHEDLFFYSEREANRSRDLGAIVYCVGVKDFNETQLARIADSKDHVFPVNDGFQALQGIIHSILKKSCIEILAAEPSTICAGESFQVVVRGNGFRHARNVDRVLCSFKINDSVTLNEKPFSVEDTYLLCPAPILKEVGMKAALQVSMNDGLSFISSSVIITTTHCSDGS
Nature of the experiment: Biacore affinity measurement of Fab.

B1: M830 anti-TEM8 fragment antigen-binding (Fab) (Fab, V domains shown)
VH: EVQLVESGGGVVQPGRSVRLSCAASGFTFSTYTMHWVRQAPGKGLEWVAIISNDGSNKYYADPVRGRFTISRDNSKNTLYLQMNSLRAEDTAVYYCVRGSSWYRGNWFDPWGQGTLVTVSS
VL: DIQMTQSPSSLSASVGDRVTIACRASQTISRYLNWYQQKPGKAPKLLIYAASSLQSGVSSRFSGSGSGTEFTLTISSLQPEDFATYFCQQTYSPPITFGQGTRLEIKR
notes: also called M830 Fab
In the experiment with mTEM8-Fc, B1 displayed a dissociation constant Kd of 3.74 nM, a dissociation rate constant (koff) of 0.0029 s⁻¹ and a kon of 775000 M⁻¹ s⁻¹. Moreover, in the experiment with hTEM8-AP, the equilibrium dissociation constant (Kd) turned out to be 1.57 nM, the dissociation rate constant (koff) amounted to 0.000953 s⁻¹ and the on-rate constant (kon) is 607000 M⁻¹ s⁻¹.

B2: M825 anti-TEM8 fragment antigen-binding (Fab) (Fab, V domains shown)
VH: QVQLVQSGAEVKKPGTSVKVSCKVPGYTFSSYAISWVRQAPGQGLEWMGGIIPIFGTTNYAQKFQGRVTITGEESTSTVYMELSSLRSEDTAVYYCARDTDYMFDYWGQGTLVTVSS
VL: SSELTQDPVVSVALGETVSITCQGDNLRDFYASWYQQKPGQAPLLVMYGKNRRPSGIPDRFSGSTSGNTLSLTITGAQAEDEADYYCSSRDNSKHVVFGGGTKVTVL
notes: also called M825 Fab
Take B2: in the experiment with mTEM8-Fc, the dissociation constant (Kd) was determined as 0.0526 nM, the koff amounted to 8.94e-05 s⁻¹ and the on-rate (kon) is 1.7e+06 M⁻¹ s⁻¹. In the experiment with hTEM8-AP, the affinity, expressed as Kd, was 0.0591 nM; the dissociation rate constant (koff) came to 0.00018 s⁻¹; the kon was determined as 3.05e+06 M⁻¹ s⁻¹.
